Like-named read-outs stand apart in the source and are kept apart here.

A word on the koff: it is a measure of how fast the partners let go of each other. One may read the kon as a measure of how fast the partners come together. The term EC50 (read off the curve) denotes the midpoint of the concentration-response curve. The low end stands for a more potent agent, the high end for a less potent agent. By EC50 is commonly meant the concentration needed to bring the measured effect to its halfway point. Higher therefore signals a less potent agent.

In assay [1] the target is T1, human FolR1 ECD-AcTev-Fcknob-Avi tag + Fc hole, biotinylated monomeric Fc fusion (human, UniProt P0DOX5 223-449 = IgG part).
T1 construct: also called huFolR1; huFolR1-Fc
Kind of assay: SPR, bivalent binding (avidity), antigen on SA chip. For orientation: SPR reads the build-up and loss of mass on a sensor chip optically.
Description: (§1) Binding of FolR1 binders as IgG or in the T-cell bispecific format to different recombinant folate receptors (human FolR1, 2 and 3, murine FolR1 and cynomolgus FolR1; all as Fc fusions) was assessed by surface plasmon resonance (SPR).
(§2) Recombinant biotinylated monomeric Fc fusions of human, cynomolgus and murine Folate Receptor 1 (FolR1-Fc) were directly coupled on a SA chip using the standard coupling instruction (Biacore, Freiburg/Germany). The immobilization level was about 300-400 RU. The anti-FolR1 IgGs or T cell bispecifics were passed at a concentration range from 2.1 to 500 nM with a flow of 30 μL/minutes through the flow cells over 180 seconds. The dissociation was monitored for 600 seconds. Bulk refractive index differences were corrected for by subtracting the response obtained on reference flow cell immobilized with recombinant biotinylated IL2 receptor Fc fusion. […] The binding curves resulting from the bivalent binding of the IgGs or T cell bispecifics were approximated to a 1:1 Langmuir binding and fitted with that model (which is not correct, but gives an idea of the avidity). The apparent avidity constants for the interactions were derived from the rate constants of the fitting using the Bia Evaluation software (GE Healthcare).

Assay [2] concerns the target T2, cynomolgus FolR1 ECD-AcTev-Fcknob-Avi tag + Fc hole, biotinylated monomeric Fc fusion (cynomolgus, UniProt P0DOX5 223-449 = IgG part).
T2 construct: also called cyFolR1; cyno FolR1-Fc
Described as above.
Description: as §1, §2

The target of assay [3] is T3, human FolR1 on cells (human, UniProt P15328 25-234).
T3 construct: also called FolR1 on HeLa, SKOV3, HT-29 tumor cells; HEK cells transfected with human FolR1
The assay is described as follows: flow cytometry on HeLa cells (human FolR1), fluorescently labeled anti-human secondary antibody. On the technique in general: Flow cytometry measures light scatter and fluorescence of single cells or particles in a stream.
Description: (§3) Binding of newly generated FolR1 binders to FolR1 expressed on HeLa cells were determined by flow cytometry. Bound antibodies were detected with a fluorescently labeled anti-human secondary antibody.
(§4) The identified binders were converted into a human IgG1 format and binding to FolR1 high expressing HeLa cells was addressed.

In assay [4] the target is T1, human FolR1 ECD-AcTev-Fcknob-Avi tag + …. The assay is described as follows: SPR, monovalent, antibody captured by anti-Fab.
Description: as §1
(§5) For affinity measurement, direct coupling of around 6000-7000 resonance units (RU) of the anti-human Fab specific antibody (Fab capture kit, GE Healthcare) was performed on a CM5 chip at pH5.0 using the standard amine coupling kit (GE Healthcare). Anti-FolR1 IgGs or T cell bispecifics were captured at 20 nM with a flow rate of 10 μl/min for 20 or 40 sec, the reference flow cell was left without capture. […] The dissociation phase was monitored for 240 sand triggered by switching from the sample solution to HBS-EP. The chip surface was regenerated after every cycle using a double injection of 60 sec 10 mM Glycine-HCl pH 2.1 or pH1.5. Bulk refractive index differences were corrected for by subtracting the response obtained on the reference flow cell 1. The affinity constants for the interactions were derived from the rate constants by fitting to a 1:1 Langmuir binding using the Bia Evaluation software (GE Healthcare).
Assay [5] deals with T2, cynomolgus FolR1 ECD-AcTev-Fcknob-Avi …. The assay is described as follows: SPR, monovalent, antibody captured by anti-Fab.
Description: as §1, §5
Assay [6] has as its target T1, human FolR1 ECD-AcTev-Fcknob-Avi tag + …. The assay is described as follows: SPR, apparent KD, bivalent binding (avidity).
Description: as §1, §2
Assay [7] concerns the target T2, cynomolgus FolR1 ECD-AcTev-Fcknob-Avi …. Kind of assay: SPR, apparent KD, bivalent binding (avidity).
Description: as §1, §2
Assay [8] concerns the target T4, huFc fused dimeric human Tim3-ECD (human, UniProt Q8TDQ0 22-202).
T4 construct: also called huTim3Fc; bivalent Tim3
Kind of assay: SPR Biacore, bivalent Tim3.
Description: (§6) Therefore, an anti-mouse IgG was immobilized by amine coupling to the surface of a (Biacore) CM5 sensor chip. The samples were then captured and hu/cy Tim3-ECD was bound to them. The sensor chip surface was regenerated after each analysis cycle. The equilibrium constant KD was finally gained by fitting the data to a 1:1 langmuir interaction model.
(§7) Flow cell temperature was set to 25° C. and sample compartment temperature to 12° C. The system was primed with running buffer. The samples were injected for 30 seconds with a concentration of 200 μg/ml and bound to the spots 1 and 5 of each flow cell, allowing the measurement of eight samples in parallel. Then a complete set of different (monomeric cyno, monomeric human and huFc fused dimeric human Tim3-ECD) concentrations (s. Table X) was injected over each sample for 240 s followed by a dissociation time of 30/1800 s (s. Table 1). Each analysis cycle (sample capture, spot 1 and 5—Tim3 ECD injection) was then regenerated with a 30 seconds long injection of Glycine-HCl pH 1.7. The flow rate was set to 30 μl/min for the whole run. Finally, the double referenced data was fitted to a 1:1 langmuir interaction model with the Biacore B4000 Evaluation Software.

The target in assay [9] is T5, human TIM-3 on cells (human, UniProt Q8TDQ0 22-301).
T5 construct: also called CHO-Tim3; rec CHOK1 cells expressing huTIM-3
The assay is described as follows: cell ELISA, CHO-K1 expressing human Tim3. (ELISA stands for enzyme-linked immunosorbent assay.)
Description: Then the reaction was stopped by addition of 25 μl/well 1N HCL-solution.

For assay [10], the target named is T6, monomeric human Tim3-ECD (human, UniProt Q8TDQ0 22-202).
T6 construct: also called huTim3
Kind of assay: SPR Biacore, monovalent Tim3.
Description: as §6, §7

Assay [11] concerns the target T7, cynomolgus TIM-3 on isolated cyno CD14+ monocytes (cynomolgus).
T7 construct: whole, on cells
Kind of assay: flow cytometry, cyno CD14+ monocytes cyno1.

In the next assay the target is T8, Tim3-ECD-His-Biotin (human, UniProt Q8TDQ0 22-202).
T8 construct: also called human Tim3 (ELISA); Biochem Human
The assay is described as follows: ELISA on Tim3-ECD-His-Biotin.

Assay [12] deals with T6, monomeric human Tim3-ECD. The assay is described as follows: SPR Biacore, antibody captured by anti-mouse IgG.
Description: as §6, §7
Assay [13] deals with T4, huFc fused dimeric human Tim3-ECD. The assay is described as follows: SPR Biacore, antibody captured by anti-mouse IgG.
Description: as §6, §7
Assay [14] addresses T5, human TIM-3 on cells. Kind of assay: flow cytometry, human CD14+ monocytes donor2.
Excerpt: (§8) CD14+ Monocytes were isolated from anticoagulated peripheral blood of healthy donors by density gradient centrifugation using Ficoll-Paque (GE Healthcare) (see General Protocols in the User Manuals or visit www.miltenyibiotec.com/protocols) and subsequent positive selection via CD14 MicroBeads. First the CD14+ cells are magnetically labeled with CD14 MicroBeads. Then the cell suspension is loaded onto a MACS® Column which is placed in the magnetic field of a MACS Separator. The magnetically labeled CD14+ cells are retained in the column. The unlabeled cells run through, this cell fraction is depleted of CD14+ cells. After removal of the column from the magnetic field, the magnetically retained CD14+ cells can be eluted as the positively selected cell fraction. After centrifugation at 200×g for 10 min at room temperature the monocytes were harvested and used directly in binding assay or resuspended in freezing medium (10% DMSO, 90% FCS) at 1.0E+07 cells/ml and stored in liquid nitrogen.
(§9) 1×10⁵ CD14+ isolated human monocytes (50 μl/well) were put into 98 well-v bottom MTP in fresh culture medium and incubated with Redimune® NF Liquid for 15 min at RT to block unspecific binding. […] After washing and centrifugation MFI signals of stained cells were analyzed by BD Biosciences FACSCanto flow cytometer.
The target of assay [15] is T7, cynomolgus TIM-3 on isolated cyno CD14+ …. The assay is described as follows: flow cytometry, cyno CD14+ monocytes cyno2.
In assay [16] the target is T5, human TIM-3 on cells. Kind of assay: flow cytometry, human CD14+ monocytes donor1.
Excerpt: as §8, §9
For assay [17], the target named is T5, human TIM-3 on cells. Kind of assay: flow cytometry, human CD14+ monocytes donor3.
Excerpt: as §8, §9
Assay [18] deals with T7, cynomolgus TIM-3 on isolated cyno CD14+ …. The assay is described as follows: flow cytometry, cyno CD14+ monocytes cyno3.
Excerpt: CD14+ Monocytes were isolated from cynomolgus monkey anticoagulated peripheral blood (Covance) by density gradient centrifugation using Ficoll-Paque (GE Healthcare) (see General Protocols in the User Manuals or visit www.miltenyibiotec.com/protocols) and subsequent positive selection via NHP CD14 MicroBeads. First the CD14+ cells are magnetically labeled with CD14 MicroBeads. Then the cell suspension is loaded onto a MACS® Column which is placed in the magnetic field of a MACS Separator. The magnetically labeled CD14+ cells are retained in the column. The unlabeled cells run through, this cell fraction is depleted of CD14+ cells. After removal of the column from the magnetic field, the magnetically retained CD14+ cells can be eluted as the positively selected cell fraction. After centrifugation at 200×g for 10 min at room temperature the monocytes were harvested and used directly in binding assay or resuspended in freezing medium (10% DMSO, 90% FCS) at 1.0E+07 cells/ml and stored in liquid nitrogen.
1×10⁵ CD14+ isolated cyno monocytes (50 μl/well) were put into 98 well-v bottom MTP in fresh culture medium and incubated with Redimune® NF Liquid for 15 min at RT to block unspecific binding. Than 50 μl/well of Alexa488 labeled anti-TIM3 (10 μg/ml in cell culture medium) were added and incubated for 1 h at 4° C. After washing and centrifugation MFI signals of stained cells were analyzed by BD Biosciences FACSCanto flow cytometer.
Assay [19] has as its target T5, human TIM-3 on cells. The assay is described as follows: cell-based or functional assay.
Assay [20] has as its target T5, human TIM-3 on cells. The assay is described as follows: cell-based or functional assay. The source holds these as a separate data set.
Assay [21] has as its target T9, human FolR2 on transiently transfected HEK cells (human, UniProt P14207 17-230). Kind of assay: flow cytometry on HEK cells transiently transfected with human FolR2, anti-human secondary antibody; concentration not given.
Assay [22] concerns the target T3, human FolR1 on cells. Kind of assay: flow cytometry on HEK cells transiently transfected with human FolR1, anti-human secondary antibody; concentration not given.
The target of assay [23] is T10, human FolR3 ECD-AcTev-Fcknob-Avi tag + Fc hole, biotinylated monomeric Fc fusion (human, UniProt P0DOX5 223-449 = IgG part).
T10 construct: also called huFolR3; FolR3-Fc
Kind of assay: SPR, IgG single injection.

Assay [24] deals with T1, human FolR1 ECD-AcTev-Fcknob-Avi tag + …. The assay is described as follows: SPR, IgG single injection.
The target in assay [25] is T11, human FolR2 ECD-AcTev-Fcknob-Avi tag + Fc hole, biotinylated monomeric Fc fusion (human, UniProt P0DOX5 223-449 = IgG part).
T11 construct: also called huFolR2; FolR2-Fc
Kind of assay: SPR, IgG single injection.

The target in assay [26] is T2, cynomolgus FolR1 ECD-AcTev-Fcknob-Avi …. The assay is described as follows: SPR, IgG single injection.
The target of assay [27] is T3, human FolR1 on cells. The assay is described as follows: flow cytometry on HeLa cells (human FolR1), fluorescently labeled anti-human secondary antibody. The source holds these as a separate data set.
Description: as §3, §4
For assay [28], the target named is T3, human FolR1 on cells. Described as above. This is another data set of the same source.
Description: as §3, §4
The target in assay [29] is T12, cynomolgus FolR1 on transiently transfected HEK cells (cynomolgus, UniProt P15328 25-234 (human entry)).
T12 construct: also called cyno FolR1; cyFoLR1
Kind of assay: flow cytometry on HEK cells transiently transfected with cyno FolR1, anti-human secondary antibody.
Excerpt: Cross-reactivity of the FolR1 antibodies to cyno FolR1 was addressed on HEK cells transiently transfected with cyFolR1 by flow cytometry. The antibodies were detected with a fluorescently labeled anti-human secondary antibody.
In parallel cross-reactivity of the FolR1 clones to cyno FolR1 was addressed by performing binding studies to HEK cells transiently transfected with cyno FolR1.

The target of assay [30] is T13, murine FolR1 ECD-AcTev-Fcknob-Avitag + Fc hole, biotinylated monomeric Fc fusion (murine, UniProt P0DOX5 223-449 = IgG part).
T13 construct: also called muFolR1; murine FolR1-Fc
The assay is described as follows: SPR, IgG single injection.

The target in assay [31] is T9, human FolR2 on transiently transfected …. Kind of assay: flow cytometry on HEK cells transiently transfected with human FolR2, anti-human secondary antibody; concentration not given. This is another data set of the same source.

T3 sequence (P15328 25-234 limits assumed): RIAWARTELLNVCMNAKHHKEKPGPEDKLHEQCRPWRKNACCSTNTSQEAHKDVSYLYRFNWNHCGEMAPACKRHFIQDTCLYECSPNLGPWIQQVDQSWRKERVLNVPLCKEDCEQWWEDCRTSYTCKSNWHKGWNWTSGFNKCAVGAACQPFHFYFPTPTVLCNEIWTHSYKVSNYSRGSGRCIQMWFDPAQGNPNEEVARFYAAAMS
T9 sequence (P14207 17-230 limits assumed): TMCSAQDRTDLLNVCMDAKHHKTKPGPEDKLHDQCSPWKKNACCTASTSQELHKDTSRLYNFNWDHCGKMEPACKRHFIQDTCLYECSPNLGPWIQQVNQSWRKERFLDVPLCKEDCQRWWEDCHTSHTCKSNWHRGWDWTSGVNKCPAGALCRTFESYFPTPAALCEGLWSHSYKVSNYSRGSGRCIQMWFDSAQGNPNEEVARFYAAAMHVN
T12 sequence (P15328 other isoform, or with tags, fused parts or gaps limits assumed): as the sequence (P15328 25-234 limits assumed) above, with I2T, W4R, R37K, Q117R, A146P, H171Y counted along it
Description for Tim3-ECD-His-Biotin: After washing (3×90 μl/well with PBST-buffer) 25 μl aTim3 samples or diluted (1:2 steps) reference antibody aTim3 F38-2E2 (Biolegend) was added and incubated 1 h at RT. After washing (3×90 μl/well with PBST-buffer) 25 μl/well sheep-anti-mouse-POD (GE NA9310V) was added in 1:9000 dilution and incubated at RT for 1 h while shaking at 400 rpm rotation. After washing (4×90 μl/well with PBST-buffer) 25 μl/well TMB substrate (Calbiochem, #CL07) was added and incubated until OD 1.5-2.5. Then the reaction was stopped by addition of 25 μl/well 1N HCL-solution.

B1: Mov19 IgG (antibody, V domains shown)
VH: QVQLQQSGAELVKPGASVKISCKASGYSFTGYFMNWVKQSHGKSLEWIGRIHPYDGDTFYNQNFKDKATLTVDKSSNTAHMELLSLTSEDFAVYYCTRYDGSRAMDYWGQGTTVTVSS
VL: DIELTQSPASLAVSLGQRAIISCKASQSVSFAGTSLMHWYHQKPGQQPKLLIYRASNLEAGVPTRFSGSGSKTDFTLNIHPVEEEDAATYYCQQSREYPYTFGGGTKLEIK
With B1, the koff in assay [1] was found to be 0.000121 s⁻¹; in assay [2], 0.000139 s⁻¹; in [4], 0.000159 s⁻¹; in assay [5] it was 0.000193 s⁻¹. Besides, the kon in assay [1] turned out to be 861000 M⁻¹ s⁻¹; in assay [2] it was 1.29e+06 M⁻¹ s⁻¹; in assay [4], 289000 M⁻¹ s⁻¹; in [5] it was 297000 M⁻¹ s⁻¹. For the same molecule, the “EC50 (read off the curve)” value with human FolR1 on cells [3] was approximately 1 µg/mL. Besides, the Kd was 0.55 nM in assay [4], 0.65 nM in assay [5], 0.14 nM in [6] and 0.108 nM in [7].

B2: Tim3_0026 (antibody, V domains shown)
VH: QIQLVQSGPELKKPGETVKISCKASGYTFTDYSMHWVKQAPGRGLKWMGYINTETYEPTFGADFKGRFAFSLDTSATTAYLQINSLKTEDTATFFCGGGGYPAYWGQGTVVIVSA
VL: DVLMTQTPLSLPVSLGDQASISCRSSRTILHSSGNTYLEWYLQKPGQSPKLLIYKVSNRFSGVPDRFSGSGSGTDFTLNISRVEAEDLGVYYCFQDSHVPFTFGTGTKLEIK
On to B2, for which the Kd amounted to 1.5 nM in assay [8], 6.2 nM in the assay with monomeric human Tim3-ECD [10], 6.23 nM with monomeric human Tim3-ECD [12] and 1.52 nM in assay [13]. In addition, the figures for the EC50 in the assay with human TIM-3 on cells [9] and with Tim3-ECD-His-Biotin were 0.069 µg/mL and 0.047 µg/mL, respectively. Further, the MFI is 137 MFI in assay [11], 184 MFI in assay [15] and 197 MFI in assay [18]. In addition, the “specific binding MFI” value with human TIM-3 on cells [14] worked out at 1020 MFI; with human TIM-3 on cells [16], 1660 MFI; in the assay with human TIM-3 on cells [17] it was 900 MFI. The “IC50 cytotoxicity (anti-mFc Fab-PE24 sandwich), RPMI-8226” value with human TIM-3 on cells [19] is more than 64 nM. Also, the “IFN-gamma release in MLR at 1 µg/ml, % of IL-2 control” value with human TIM-3 on cells [20] amounted to 18%. Further, the “IFN-gamma release in MLR at 10 µg/ml, % of IL-2 control” value with human TIM-3 on cells [20] came out at 16%. Also, the “IFN-gamma release in MLR at 40 µg/ml, % of IL-2 control” value in the assay with human TIM-3 on cells [20] is 25%.

B3: Tim3_0030 (antibody, V domains shown)
VH: QIQLVQSGPELKKPGETVKISCKASGYPFSEYSIHWVKQAPGKGLKWMVYVNTETGQPIVGDDFRGRFVLSLETSASTAYLQINNLKNEDTATYFCGGGGYPAYWGQGTLVTVSA
VL: DVLMTQTPLSLPVSLGDQASISCRSSRSIVHSSGNTYLEWYLQKPGQSPKLLIYKVSNRFSGVPDRFSGSGSGTDFTLNISRVEAEDLGVYYCFQDSHVPFTFGTGTKLEIK
For B3, the MFI turned out to be 119 MFI in assay [11], 163 MFI in assay [15] and 144 MFI in [18]. For the same molecule, the results for the Kd (in the assay with monomeric human Tim3-ECD [12]; in [13]) were 3.11 nM and 1.28 nM, respectively. Besides, the figures for the “specific binding MFI” value in the assay with human TIM-3 on cells [14], with human TIM-3 on cells [16] and with human TIM-3 on cells [17] were 419 MFI, 1410 MFI and 466 MFI, respectively. Further, in the assay with human TIM-3 on cells [19], the “IC50 cytotoxicity (anti-mFc Fab-PE24 sandwich), RPMI-8226” value was more than 64 nM. In addition, the “IFN-gamma release in MLR at 1 µg/ml, % of IL-2 control” value in the assay with human TIM-3 on cells [20] was determined as 3%. For the same molecule, the “IFN-gamma release in MLR at 10 µg/ml, % of IL-2 control” value with human TIM-3 on cells [20] came to 4%. The “IFN-gamma release in MLR at 40 µg/ml, % of IL-2 control” value with human TIM-3 on cells [20] was 14%.

B4: 19E5 IgG (antibody, V domains shown)
VH: QVQLVQSGAEVKKPGASVKVSCKASGYTFTSYYMHWVRQAPGQGLEWMGIINPSGGSTSYAQKFQGRVTMTRDTSTSTVYMELSSLRSEDTAVYYCARGEWRRYTSFDYWGQGTLVTVSS
VL: QAVVTQEPSLTVSPGGTVTLTCGSSTGAVTTSNYANWVQEKPGQAFRGLIGGTNKRAPGTPARFSGSLLGGKAALTLSGAQPEDEAEYYCALWYSNLWVFGGGTKLTVL
notes: human IgG1
As to B4, in the assay with human FolR1 on cells [3], the “EC50 (read off the curve)” value was approximately 2 µg/mL. In addition, the binding result in assay [21] was “binds”.

B5: 19A4 IgG (antibody, V domains shown)
VH: QVQLVQSGAEVKKPGASVKVSCKASGYTFTSYYMHWVRQAPGQGLEWMGIINPSGGSTSYAQKFQGRVTMTRDTSTSTVYMELSSLRSEDTAVYYCARGGWIRWEHFDYWGQGTLVTVSS
VL: QAVVTQEPSLTVSPGGTVTLTCGSSTGAVTTSNYANWVQEKPGQAFRGLIGGTNKRAPGTPARFSGSLLGGKAALTLSGAQPEDEAEYYCALWYSNLWVFGGGTKLTVL
notes: human IgG1
As for B5, the binding result (in assay [21]; with human FolR1 on cells [22]) was “binds” each time.

B6: 20G6 IgG (antibody, V domains shown)
VH: QVQLVQSGAEVKKPGASVKVSCKASGYTFTSYYMHWVRQAPGQGLEWMGIINPSGGSTSYAQKFQGRVTMTRDTSTSTVYMELSSLRSEDTAVYYCARGEWIRYYHFDYWGQGTLVTVSS
VL: QAVVTQEPSLTVSPGGTVTLTCGSSTGAVTTSNYANWVQEKPGQAFRGLIGGTNKRAPGTPARFSGSLLGGKAALTLSGAQPEDEAEYYCALWYSNLWVFGGGTKLTVL
notes: human IgG1
Regarding B6, the binding result in assay [23] is reported as “no binding (tested: 500 nM)”; in assay [24] it was “no binding (tested: 500 nM)”; in assay [25], “no binding (tested: 500 nM)”; in assay [26], “no binding (tested: 500 nM)”; in the assay with human FolR1 on cells [27], “binds”.

B7: 9D11 IgG (antibody, V domains shown)
VH: QVQLVQSGAEVKKPGASVKVSCKASGYTFTSYYMHWVRQAPGQGLEWMGIINPSGGPTSYAQKFQGRVTMTRDTSTSTVYMELSSLRSEDTAVYYCARGDFAWLDYWGQGTLVTVSS
VL: not shown
notes: human IgG1
As for B7, the binding result is “binds” with human FolR1 on cells [28]; “binds” in [29]; “no binding (tested: 500 nM)” in [23]; “no binding (tested: 500 nM)” in assay [30]; “no binding (tested: 500 nM)” in [25]; “no binding” in assay [31].

These data come from patent US20210087291A1 (Hoffmann-La Roche, published 2021).
